From the Human Domainome abundance scans (Beltran et al. 2025)

B1: POU domain, class 3, transcription factor 4, residues 280 to 335; numbered along this chain, P49335 (parent)
chain: KKRTSIEVSVKGVLETHFLKCPKPAAQEISSLADSLQLEKEVVRVWFCNRRQKEKR

Variants of: B1
Assay: abundance fitness (aPCA) (normalised: wild type 0, dead -1); higher = more abundant; growth selection in yeast, the domain comes from the species named
Details: Homo sapiens

Abundance fitness, by site and new letter:
F18: T -0.732 | V -0.56 | W -0.485 | Y -0.195
L19: A -0.187 | C -0.385 | D -0.363 | E -0.391 | F -0.941 | G -0.504 | I -0.441 | K -0.461 | M 0.039 | N -0.343 | P -0.774 | Q -0.045 | R -0.236 | S -0.191 | T -0.019 | V -0.437 | W -0.624 | Y -0.518
K20: A -0.339 | C -0.735 | F -0.344 | G -0.69 | H -0.693 | I -0.574 | L -0.446 | M -0.812 | N -0.475 | P -0.805 | Q -0.578 | R -0.386 | S -0.479 | T -0.129 | V -0.429 | W -0.832 | Y -0.788
C21: A -0.756 | D 0.059 | E -0.546 | G -0.724 | H -0.533 | I -0.58 | K -0.725 | L -0.419 | M -0.723 | N 0.31 | P -0.483 | Q 0.265 | R -0.742 | S -0.072 | T -0.336 | V -0.781 | W -0.846 | Y -0.898
P22: C -0.502 | D -0.363 | E -0.702 | F -0.732 | G -0.909 | H -0.513 | I -0.606 | K -0.315 | L -0.783 | M -0.553 | Q 0.208 | R -0.37 | S -0.427 | T -0.796 | V -0.469 | W -0.166 | Y -0.949
K23: C 0.218 | D 0.263 | E 0.142 | F 0.137 | G -0.664 | H 0.186 | I -0.369 | M 0.149 | N 0.559 | P -0.697 | Q 0.064 | R 0.118 | S 0.17 | T 0.237 | V -0.225 | W 0.037 | Y 0.396
P24: G -0.842 | H -0.688 | L -0.753 | R -0.405 | W -0.514 | Y -1.07
A25: C 0.18 | D 0.545 | F -0.769 | G 0.313 | H -0.096 | I -0.297 | K -0.015 | L -0.262 | M -0.073 | P -0.31 | Q 0.045 | R -0.088 | S 0.457 | T 0.495 | V -0.476 | W -0.764
A26: C -0.211 | D 0.396 | E 0.385 | F -0.451 | G -0.37 | H -0.237 | I -0.168 | K -0.415 | L -0.07 | M 0.108 | N -0.043 | P 0.149 | S -0.095 | T -0.017 | V -0.254 | W -0.05 | Y -0.254
Q27: A 0.078 | C -0.16 | D 0.147 | G -0.172 | H -0.074 | K -0.157 | M -0.344 | P -0.761 | R -0.054 | T -0.335 | V -0.434 | W -0.295
E28: A -0.657 | C -0.569 | D -0.3 | F -0.732 | G -0.886 | H -0.63 | I -0.47 | K -0.713 | L -0.357 | M -0.355 | N -0.123 | P -0.352 | Q -0.432 | S -0.692 | T -0.411 | V -0.398 | W -0.484 | Y -0.382
I29: S -0.762
S30: C -0.396 | D 0.08 | E 0.215 | F -0.332 | G -0.209 | H -0.706 | I -0.148 | K -0.003 | L -0.536 | M -0.262 | N -0.196 | P -0.652 | Q -0.163 | R -0.185 | T -0.118 | V -0.058
S31: A 0.006 | C -0.414 | E -0.058 | F -0.059 | G -0.398 | H 0.219 | I 0.004 | K 0.022 | L -0.114 | M 0.096 | N 0.182 | P -0.913 | Q -0.031 | R 0.29 | T 0.035 | V 0.013 | W -0.467
L32: A -0.247 | C -0.633 | E -0.631 | F -0.877 | G -0.784 | H -0.86 | I -0.041 | M -0.425 | N -0.785 | P -0.176 | Q -0.916 | R -0.847 | S -0.732 | T -0.939 | V -0.625 | W -0.614
A33: D -0.96 | E -0.634 | F -0.773 | G -0.853 | I -0.802 | K -0.959 | L -0.598 | M -0.836 | N -0.964 | P -0.907 | R -0.667 | T -0.704 | V -1.02 | W -0.835 | Y -0.917
D34: A -0.254 | C -0.531 | E -0.172 | G -0.537 | H 0.069 | I -0.717 | K 0.109 | L -0.528 | M -0.479 | N -0.384 | P -0.843 | Q -0.183 | R 0.019 | S -0.317 | T -0.472 | W -0.801 | Y -0.793
S35: A 0.071 | C -0.383 | D 0.031 | E 0.115 | F -0.249 | G -0.638 | H 0.345 | I -0.373 | K 0.257 | L -0.122 | M 0.127 | N -0.45 | R 0.152 | T -0.01 | V -0.456 | W -0.707 | Y -0.364
L36: E -0.781 | G -0.703
Q37: A -0.437 | C -0.198 | D 0.043 | F -0.615 | G 0.177 | H 0.104 | K -0.322 | L -0.664 | M -0.22 | N 0.071 | P -0.855 | R -0.21 | S -0.081 | V -0.923
L38: A -0.744 | C -0.656 | E -0.729 | G -0.679 | I 0.048 | K -0.531 | M -0.148 | P -0.932 | Q -0.89 | S -0.815 | T -0.607 | V -0.269 | W -0.884 | Y -0.483
E39: A -0.515 | C -0.411 | D 0.122 | F -0.735 | G -0.686 | H -0.551 | I -0.456 | K -0.583 | M -0.478 | N -0.134 | P -0.022 | Q -0.522 | R -0.572 | S -0.074 | T -0.421 | V -0.565 | W -0.746
K40: A 0.026 | C -0.154 | D -0.287 | E 0.192 | F 0.195 | G -0.441 | H 0.099 | I -0.638 | L -0.418 | M -0.269 | N -0.248 | P 0.348 | Q -0.063 | R -0.071 | S -0.188 | T 0.181 | V 0.097 | W -0.539 | Y 0.009
E41: A -0.776 | C -0.84 | D 0.043 | F -0.841 | G -0.709 | H -0.161 | I -0.828 | K -0.602 | L -0.955
